Source: the supplement of paper PMC10126150
± gives the standard deviation of the averaged measurements.

Tested on: ATP
Assay: switch fluorescence ratio, 500 uM ATP over buffer (Cy3 cluster intensity, sum of 5 cycles each) (fold (ratio)); higher = stronger signal-on switching upon ATP binding; sequences stand for … in TCGTCGGCAGCGTCAGATGTGTATAAGAGACAGTTTTTTTTTTTTTTTTTTTTTTTTT…TC
Details: aptamer strand: ATP DNA aptamer (quencher-CACCTGGGGGAGTATTGCGGAGGAAGG + anchor), 100 nM annealed; ATP concentration: 500 uM
Summary of the method: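 Cy3-labelled switching-strand clusters on a modified Illumina MiSeq flow-cell were annealed to 100 nM quencher-labelled ATP aptamer and imaged first in selection buffer, then after 15 min with 500 uM ATP at 22 °C. NaOH stripping and re-annealing separated each of five buffer/ATP cycles, and clusters outside 100-1000 RFU were excluded. The fluorescence ratio sums target-cycle Cy3 intensity over buffer-cycle Cy3 intensity per cluster and averages it per switch-domain sequence.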
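Also: ATP exposure 15 min at 22 °C before imaging.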

Row | Sequence | switch fluorescence ratio
1 | CTGGGGTAGG | 1.04 ± 0.018
2 | CTGGGGTTTT | 0.991 ± 0.032
3 | CTGGGTAGGG | 1.008 ± 0.01
4 | CTGGGTCTGA | 1.02 ± 0.026
5 | CTGGGTGCAT | 1.14 ± 0.032
6 | CTGGGTGGCG | 1.01 ± 0.069
7 | CTGGGTTAGG | 0.973 ± 0.032
8 | CTGGGTTGCG | 0.958 ± 0.032
9 | CTGGTAGAGG | 0.979 ± 0.048
10 | CTGGTAGGGA | 1.06 ± 0.044
11 | CTGGTATGGA | 0.971 ± 0.065
12 | CTGGTATGGG | 1.01 ± 0.03
13 | CTGGTCCAGG | 1.12 ± 0.034
14 | CTGGTCTTGC | 1.04 ± 0.035
15 | CTGGTGTGGC | 0.982 ± 0.028
16 | CTGGTTCTTT | 0.9898 ± 0.0082
17 | CTGTAAATTT | 0.991 ± 0.03
18 | CTGTAACGTT | 1.015 ± 0.0015
19 | CTGTAAGGCG | 1.05 ± 0.025
20 | CTGTAATTGG | 1.006 ± 0.001
21 | CTGTACGGAT | 1.95 ± 1.7
22 | CTGTAGCTGG | 1.53 ± 0.05
23 | CTGTAGGGTT | 1.01 ± 0.034
24 | CTGTATTTCT | 1.03 ± 0.021
25 | CTGTCTTGA | 1 ± 0.038

Row | Sequence | switch fluorescence ratio
26 | CTGTGAGGGC | 0.991 ± 0.037
27 | CTGTGAGTTA | 0.97 ± 0.038
28 | CTGTGCAGCG | 1.01 ± 0.019
29 | CTGTGGAAAG | 0.991 ± 0.018
30 | CTGTGGATGG | 1.01 ± 0.041
31 | CTGTGGGAAG | 0.995 ± 0.056
32 | CTGTGGTATT | 0.985 ± 0.018
33 | CTGTGGTTGG | 0.981 ± 0.011
34 | CTGTGTATGT | 1.02 ± 0.061
35 | CTGTGTGATG | 0.991 ± 0.017
36 | CTGTGTGCCT | 0.995 ± 0.07
37 | CTGTGTTCTT | 0.9864 ± 0.0065
38 | CTGTTAATAG | 1.12 ± 0.027
39 | CTGTTAGTTG | 0.993 ± 0.019
40 | CTGTTATGTG | 0.952 ± 0.015
41 | CTGTTCACGG | 1.017 ± 0.0092
42 | CTGTTCCTTT | 1.056 ± 0.0014
43 | CTGTTGAGGG | 1 ± 0.027
44 | CTGTTGGGCC | 0.9949 ± 0.0047
45 | CTGTTGGGTT | 0.997 ± 0.016
46 | CTGTTTATTT | 1.36 ± 0.54
47 | CTTAAAGGCC | 0.984 ± 0.026
48 | CTTAAAGTCG | 0.981 ± 0.0073
49 | CTTAAATCTG | 0.974 ± 0.084
50 | CTTAAATGAA | 1.02 ± 0.036

Row | Sequence | switch fluorescence ratio
51 | CTTAAATTAA | 0.989 ± 0.051
52 | CTTAAATTCG | 0.987 ± 0.018
53 | CTTAACCTTC | 2.43 ± 0.31
54 | CTTAACGGGA | 0.99 ± 0.026
55 | CTTAACTTAG | 1.047 ± 0.0015
56 | CTTACAGGTT | 0.99 ± 0.036
57 | CTTACGGAGG | 1.01 ± 0.015
58 | CTTAGAATTG | 1.02 ± 0.012
59 | CTTAGATCTG | 1 ± 0.027
60 | CTTAGATGGT | 0.975 ± 0.015
61 | CTTAGATTTT | 0.988 ± 0.025
62 | CTTAGGAAAG | 0.98833 ± 0.00059
63 | CTTAGGCGGT | 1.038 ± 0.0062
64 | CTTAGGGCGG | 0.957 ± 0.027
65 | CTTAGGGTTG | 0.999 ± 0.013
66 | CTTAGTATAT | 1 ± 0.024
67 | CTTAGTGTTC | 0.992 ± 0.028
68 | CTTATAATTG | 0.9935 ± 0.00017
69 | CTTATACTGG | 1.02 ± 0.011
70 | CTTATAGGTG | 1.14 ± 0.059
71 | CTTATCTCTT | 1.02 ± 0.025
72 | CTTATGACAG | 0.988 ± 0.011
73 | CTTATGGACT | 0.991 ± 0.033
74 | CTTATTAACT | 0.9954 ± 0.0069
75 | CTTATTAAGC | 1.05 ± 0.011

Row | Sequence | switch fluorescence ratio
76 | CTTATTGTAG | 0.964 ± 0.061
77 | CTTATTTCCG | 1.032 ± 0.0096
78 | CTTATTTGGG | 0.997 ± 0.031
79 | CTTCACACGT | 1.016 ± 0.01
80 | CTTCAGGGAA | 1.01 ± 0.032
81 | CTTCGGCCTT | 0.976 ± 0.02
82 | CTTCGGTTCT | 1.02 ± 0.028
83 | CTTCTAAGTC | 1.004 ± 0.0097
84 | CTTCTAGTCC | 1.03 ± 0.028
85 | CTTCTGTCGT | 1.034 ± 0.0018
86 | CTTCTTGGAG | 0.967 ± 0.026
87 | CTTGAAGATG | 0.973 ± 0.065
88 | CTTGAAGGGA | 0.995 ± 0.029
89 | CTTGAATCGT | 0.987 ± 0.013
90 | CTTGACTGTG | 1.03 ± 0.011
91 | CTTGAGACGG | 1.01 ± 0.017
92 | CTTGCCGGCG | 1.07 ± 0.03
93 | CTTGCGGCCT | 1.11 ± 0.15
94 | CTTGCGGGCG | 0.982 ± 0.012
95 | CTTGCGGGGA | 1.0408 ± 0.00045
96 | CTTGCTTTTT | 0.948 ± 0.0035
97 | CTTGGAATGT | 1.01 ± 0.029
98 | CTTGGAGGA | 1.024 ± 0.0093
99 | CTTGGAGGCG | 1.01 ± 0.036
100 | CTTGGAGTTA | 0.997 ± 0.025
